Reference: patent US20110311522A1

Experiments:
[1] = target: hemagglutinin (HA) of H5N1 virus strain B4 (H5N1 avian influenza virus, strain B4); test: cell-based or functional assay
[2] = target: hemagglutinin (HA) of H5N1 virus strain G1 (H5N1 avian influenza virus, strain G1); test: cell-based or functional assay
[3] = target: hemagglutinin (HA) of H5N1 virus strain B8 (H5N1 avian influenza virus, strain B8); test: cell-based or functional assay
[4] = target: hemagglutinin (HA) of H5N1 virus strain F2 (H5N1 avian influenza virus, strain F2); test: cell-based or functional assay
[5] = target: hemagglutinin (HA) of H5N1 virus strain B6 (H5N1 avian influenza virus, strain B6); test: cell-based or functional assay
[6] = target: hemagglutinin (HA) of H5N1 virus strain B3 (H5N1 avian influenza virus, strain B3); test: cell-based or functional assay
[7] = target: hemagglutinin (HA) of H5N1 virus strain B1 (H5N1 avian influenza virus, strain B1); test: cell-based or functional assay
[8] = target: hemagglutinin (HA) of H5N1 virus strain F4 (H5N1 avian influenza virus, strain F4); test: cell-based or functional assay
[9] = target: hemagglutinin (HA) of H5N1 virus strain F3 (H5N1 avian influenza virus, strain F3); test: cell-based or functional assay
[10] = target: hemagglutinin (HA) of H5N1 virus strain A2 (H5N1 avian influenza virus, strain A2); test: cell-based or functional assay
[11] = target: hemagglutinin (HA) of H5N1 virus strain A6 (H5N1 avian influenza virus, strain A6); test: cell-based or functional assay
[12] = target: hemagglutinin (HA) of H5N1 virus strain B7 (H5N1 avian influenza virus, strain B7); test: cell-based or functional assay
[13] = target: hemagglutinin (HA) of H5N1 virus strain C3 (H5N1 avian influenza virus, strain C3); test: cell-based or functional assay
[14] = target: hemagglutinin (HA) of H5N1 virus strain H2 (H5N1 avian influenza virus, strain H2); test: cell-based or functional assay
[15] = target: hemagglutinin (HA) of H5N1 virus strain E2 (H5N1 avian influenza virus, strain E2); test: cell-based or functional assay
[16] = target: hemagglutinin (HA) of H5N1 virus strain VNM2-2.1 (H5N1 avian influenza virus, strain VNM2-2.1); test: cell-based or functional assay
[17] = target: hemagglutinin (HA) of H5N1 virus strain GD1.1 (H5N1 avian influenza virus, strain GD1.1); test: cell-based or functional assay
[18] = target: hemagglutinin (HA) of H5N1 virus strain D2 (H5N1 avian influenza virus, strain D2); test: cell-based or functional assay
[19] = target: hemagglutinin (HA) of H5N1 virus strain IDN8.1 (H5N1 avian influenza virus, strain IDN8.1); test: cell-based or functional assay
[20] = target: hemagglutinin (HA) of H5N1 virus strain VTM4.1 (H5N1 avian influenza virus, strain VTM4.1); test: cell-based or functional assay
[21] = target: hemagglutinin (HA) of H5N1 virus strain A1 (H5N1 avian influenza virus, strain A1); test: cell-based or functional assay
[22] = target: hemagglutinin (HA) of H5N1 virus strain IDN6.1 (H5N1 avian influenza virus, strain IDN6.1); test: cell-based or functional assay
[23] = target: hemagglutinin (HA) of H5N1 virus strain GD3.1 (H5N1 avian influenza virus, strain GD3.1); test: cell-based or functional assay
[24] = target: hemagglutinin (HA) of H5N1 virus strain E1 (H5N1 avian influenza virus, strain E1); test: cell-based or functional assay
[25] = target: hemagglutinin (HA) of H5N1 virus strain A3 (H5N1 avian influenza virus, strain A3); test: cell-based or functional assay
[26] = target: hemagglutinin (HA) of H5N1 virus strain IDN3.1 (H5N1 avian influenza virus, strain IDN3.1); test: cell-based or functional assay
[27] = target: hemagglutinin (HA) of H5N1 virus strain HN3.1 (H5N1 avian influenza virus, strain HN3.1); test: cell-based or functional assay
[28] = target: hemagglutinin (HA) of H5N1 virus strain A8 (H5N1 avian influenza virus, strain A8); test: cell-based or functional assay
[29] = target: hemagglutinin (HA) of H5N1 virus strain A7 (H5N1 avian influenza virus, strain A7); test: cell-based or functional assay
[30] = target: H5 virus strain (fifteen strains of H5N1 viruses); test: cell-based or functional assay
[31] = target: hemagglutinin (HA) of H5N1 virus strain VTM1.1 (H5N1 avian influenza virus, strain VTM1.1); test: cell-based or functional assay
[32] = target: hemagglutinin (HA) of H5N1 virus strain C2 (H5N1 avian influenza virus, strain C2); test: cell-based or functional assay
[33] = target: hemagglutinin (HA) of H5N1 virus strain IDN1.1 (H5N1 avian influenza virus, strain IDN1.1); test: cell-based or functional assay
[34] = target: hemagglutinin (HA) of H5N1 virus strain D3 (H5N1 avian influenza virus, strain D3); test: cell-based or functional assay
[35] = target: 14 strains of non-H5 viruses (H1~H13, Chicken NDV); test: cell-based or functional assay
[36] = target: hemagglutinin (HA) of H5N1 virus strain D1 (H5N1 avian influenza virus, strain D1); test: cell-based or functional assay
[37] = target: hemagglutinin (HA) of H5N1 virus strain YN2.1 (H5N1 avian influenza virus, strain YN2.1); test: cell-based or functional assay
[38] = target: hemagglutinin (HA) of H5N1 virus strain Mixed1.1 (H5N1 avian influenza virus, strain Mixed1.1); test: cell-based or functional assay
[39] = target: hemagglutinin (HA) of H5N1 virus strain FJ1.5 (H5N1 avian influenza virus, strain FJ1.5); test: cell-based or functional assay
[40] = target: hemagglutinin (HA) of H5N1 virus strain QH1.1 (H5N1 avian influenza virus, strain QH1.1); test: cell-based or functional assay
[41] = target: hemagglutinin (HA) of H5N1 virus strain GD4.1 (H5N1 avian influenza virus, strain GD4.1); test: cell-based or functional assay
[42] = target: phage peptides (screening product screened with 8G9 from twelve-peptide library)

B1: monoclonal antibody 13D4 (antibody, V domains shown)
VH: QVQLQQSGAELMKPGASVKISCKATGYTFSGHWIEWVKQRPGHGLEWIGEILPGSGNIHYNEKFKGKATFAADTSSNTAYMQLSSLTSEDSAVYYCARLGTTAVERDWYFDVWGQGTTVTESL
VL: DIVMTQSQKFMSASVGDRVSVTCKASQNVGTHLAWYQQKPGQSPKALIYSASYRYSGVPDRFTGSGSGTDFTLTISNVQSGDLADYFCQQYNNFPLTFGAGTKLEIKR
HI titer (hemagglutinin inhibition assay) (n (HI titer = 2^n)) [1]: 5 | HI titer (hemagglutinin inhibition assay) (n (HI titer = 2^n)) [2]: 4 | HI titer (hemagglutinin inhibition assay) (n (HI titer = 2^n)) [3]: > 8 | HI titer (hemagglutinin inhibition assay) (n (HI titer = 2^n)) [4]: 5 | HI titer (hemagglutinin inhibition assay) (n (HI titer = 2^n)) [5]: > 8 | HI titer (hemagglutinin inhibition assay) (n (HI titer = 2^n)) [6]: 3 | HI titer (hemagglutinin inhibition assay) (n (HI titer = 2^n)) [7]: > 8 | HI titer (hemagglutinin inhibition assay) (n (HI titer = 2^n)) [8]: 1 | HI titer (hemagglutinin inhibition assay) (n (HI titer = 2^n)) [9]: > 8 | HI titer (hemagglutinin inhibition assay) (n (HI titer = 2^n)) [10]: 7 | HI titer (hemagglutinin inhibition assay) (n (HI titer = 2^n)) [11]: 3 | HI titer (hemagglutinin inhibition assay) (n (HI titer = 2^n)) [12]: 7 | HI titer (hemagglutinin inhibition assay) (n (HI titer = 2^n)) [13]: 4 | HI titer (hemagglutinin inhibition assay) (n (HI titer = 2^n)) [14]: 3 | HI titer (hemagglutinin inhibition assay) (n (HI titer = 2^n)) [15]: 6 | Hamaglutinin inhibition titer [16]: 12800 titer | Neutralization titer [16]: 12800 titer | Hamaglutinin inhibition titer [17]: 6400 titer | Neutralization titer [17]: 12800 titer | HI titer (hemagglutinin inhibition assay) (n (HI titer = 2^n)) [18]: 5 | Hamaglutinin inhibition titer [19]: 12800 titer | Neutralization titer [19]: 12800 titer | Hamaglutinin inhibition titer [20]: 12800 titer | Neutralization titer [20]: 12800 titer | HI titer (hemagglutinin inhibition assay) (n (HI titer = 2^n)) [21]: > 8 | Hamaglutinin inhibition titer [22]: 12800 titer | Neutralization titer [22]: 12800 titer | Hamaglutinin inhibition titer [23]: 12800 titer | Neutralization titer [23]: 12800 titer | HI titer (hemagglutinin inhibition assay) (n (HI titer = 2^n)) [24]: 7 | HI titer (hemagglutinin inhibition assay) (n (HI titer = 2^n)) [25]: 6 | Hamaglutinin inhibition titer [26]: 12800 titer | Neutralization titer [26]: 12800 titer | Hamaglutinin inhibition titer [27]: 12800 titer | Neutralization titer [27]: 12800 titer | HI titer (hemagglutinin inhibition assay) (n (HI titer = 2^n)) [28]: 5 | HI titer (hemagglutinin inhibition assay) (n (HI titer = 2^n)) [29]: 4 | Positive number/total virus number, hemagglutination inhibition assay (of 15 virus strains positive) [30]: 15 | Hamaglutinin inhibition titer [31]: 6400 titer | Neutralization titer [31]: 12800 titer | HI titer (hemagglutinin inhibition assay) (n (HI titer = 2^n)) [32]: 3 | Hamaglutinin inhibition titer [33]: 12800 titer | Neutralization titer [33]: 12800 titer | HI titer (hemagglutinin inhibition assay) (n (HI titer = 2^n)) [34]: 6 | Positive number/total virus number, hemagglutination inhibition assay (of 14 virus strains positive) [35]: 0 | HI titer (hemagglutinin inhibition assay) (n (HI titer = 2^n)) [36]: 5 | Hamaglutinin inhibition titer [37]: 12800 titer | Neutralization titer [37]: 12800 titer | Hamaglutinin inhibition titer [38]: 6400 titer | Neutralization titer [38]: 12800 titer | Hamaglutinin inhibition titer [39]: 12800 titer | Neutralization titer [39]: 12800 titer | Hamaglutinin inhibition titer [40]: 12800 titer | Neutralization titer [40]: 12800 titer | Hamaglutinin inhibition titer [41]: 12800 titer | Neutralization titer [41]: 12800 titer

B2: monoclonal antibody 8G9 (antibody, V domains shown)
VH: QVQLQQPGVELVRPGASVKLSCKASGYTFTSFWMNWVKQRPDQGLEWIGRIDPYDSETHYNQKFKDKAILTVDKSSSTAYMQLSSLTSEDSAVYYCGRGIATLMVLPDYWGQGTSVTVSS
VL: DILMTQSPSSMSVSLGDTVSITCHASQDISSNMGWLQQKPGKSLKGLIYHGTNLEDGVPSRFSGSGSGPDYSLTISSLESEDFADYYCVQYIQFPWTFGGGTKLEIKR
Hamaglutinin inhibition titer [16]: 12800 titer | Neutralization titer [16]: 12800 titer | Hamaglutinin inhibition titer [17]: 12800 titer | Neutralization titer [17]: 12800 titer | Hamaglutinin inhibition titer [19]: 12800 titer | Neutralization titer [19]: 12800 titer | Hamaglutinin inhibition titer [20]: 12800 titer | Neutralization titer [20]: 12800 titer | Hamaglutinin inhibition titer [22]: 12800 titer | Neutralization titer [22]: 12800 titer | Hamaglutinin inhibition titer [23]: 12800 titer | Neutralization titer [23]: 12800 titer | Hamaglutinin inhibition titer [26]: 12800 titer | Neutralization titer [26]: 12800 titer | Hamaglutinin inhibition titer [27]: 12800 titer | Neutralization titer [27]: 12800 titer | Positive number/total virus number, hemagglutination inhibition assay (of 15 virus strains positive) [30]: 15 | Hamaglutinin inhibition titer [31]: 12800 titer | Neutralization titer [31]: 12800 titer | Hamaglutinin inhibition titer [33]: 12800 titer | Neutralization titer [33]: 12800 titer | Positive number/total virus number, hemagglutination inhibition assay (of 14 virus strains positive) [35]: 0 | Hamaglutinin inhibition titer [37]: 12800 titer | Neutralization titer [37]: 12800 titer | Hamaglutinin inhibition titer [38]: 12800 titer | Neutralization titer [38]: 12800 titer | Hamaglutinin inhibition titer [39]: 12800 titer | Neutralization titer [39]: 12800 titer | Hamaglutinin inhibition titer [40]: 12800 titer | Neutralization titer [40]: 12800 titer | Hamaglutinin inhibition titer [41]: 12800 titer | Neutralization titer [41]: 12800 titer | OD value relative to that of the control antibodies [42]: > 3 fold
